According to patent US20260184782A1 (TWIST BIOSCIENCE, published 2026):

T1: recombinant human TIGIT (human, UniProt Q495A1 22-141, limits assumed)
T1 construct: recombinant human TIGIT used in Carterra SPR; also called hTIGIT
T1 sequence (looked up): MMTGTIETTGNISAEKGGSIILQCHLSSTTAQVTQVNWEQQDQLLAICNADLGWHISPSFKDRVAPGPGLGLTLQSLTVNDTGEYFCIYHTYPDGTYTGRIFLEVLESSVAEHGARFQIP

B1: TIGIT-SC126 (Fc fusion)
VHH: EVQLVESGGGLVQPGGSLRLSCAASGSIFSGNVMGWFRQAPGKERELVAAISNSASSTVYADSVKGRFTISADNSKNTAYLQMNSLKPEDTAVYYCARDWNLFDYWGQGTLVTVSS
notes: VHH-Fc fusion in assay
B2: TIGIT-SC127 (Fc fusion)
VHH: EVQLVESGGGLVQPGGSLRLSCAASGSIFSGNAMGWFRQAPGKERELVAAISNSASSTVYADSVKGRFTISADNSKNTAYLQMNSLKPEDTAVYYCARDWNLFDYWGQGTLVTVSS
notes: VHH-Fc fusion in assay
B3: TIGIT-SC41 (Fc fusion)
VHH: EVQLVESGGGLVQPGGSLRLSCAASGMTTIGPMGWFRQAPGKEREFVASIAWGDGNTYYADSVKGRFTISADNSKNTAYLQMNSLKPEDTAVYYCVRGGSRTLWGQGTLVTVSS
notes: VHH-Fc fusion in assay
B4: TIGIT-SC64 (Fc fusion)
VHH: EVQLVESGGGLVQPGGSLRLSCAASGFAFSNFGMGWFRQAPGKERELVSAIGWSGASTYYADSVKGRFTISADNSKNTAYLQMNSLKPEDTAVYYCARRGRTIPFDYWGQGTLVTVSS
notes: VHH-Fc fusion in assay
B5: TIGIT-SC119 (Fc fusion)
VHH: EVQLVESGGGLVQPGGSLRLSCAASGNTFSGGFMGWFRQAPGKEREWVASVLRGGYTWYADSVKGRFTISADNSKNTAYLQMNSLKPEDTAVYYCAKDGGWFDPWGQGTLVTVSS
notes: VHH-Fc fusion in assay
B6: TIGIT-SC17 (Fc fusion)
VHH: EVQLVESGGGLVQPGGSLRLSCAASGFDFSVSWMGWFRQAPGKEREWVASVLRGGYTWYADSVKGRFTISADNSKNTAYLQMNSLKPEDTAVYYCAREGSWFDYWGQGTLVTVSS
notes: VHH-Fc fusion in assay
B7: TIGIT-SC37 (Fc fusion)
VHH: EVQLVESGGGLVQPGGSLRLSCAASGNTFSGGFMGWFRQAPGKEREWVASVLRGGYTWYADSVKGRFTISADNSKNTAYLQMNSLKPEDTAVYYCVFGGVWQDVWGQGTLVTVSS
notes: VHH-Fc fusion in assay
B8: TIGIT-SC120 (Fc fusion)
VHH: EVQLVESGGGLVQPGGSLRLSCAASGFTFSPSWMGWFRQAPGKEREWVASVLRGGYTWYADSVKGRFTISADNSKNTAYLQMNSLKPEDTAVYYCAKDGGWFDPWGQGTLVTVSS
notes: VHH-Fc fusion in assay
B9: TIGIT-SC165 (Fc fusion)
VHH: EVQLVESGGGLVQPGGSLRLSCAASGNTFSGGFMGWFRQAPGKEREWVASVLRGGYTWYADSVKGRFTISADNSKNTAYLQMNSLKPEDTAVYYCTTEGSGWRNWGQGTLVTVSS
notes: VHH-Fc fusion in assay
B10: TIGIT-SC189 (Fc fusion)
VHH: EVQLVESGGGLVQPGGSLRLSCAASGNTFSGGFMGWFRQAPGKEREWVASVLRGGYTWYADSVKGRFTISADNSKNTAYLQMNSLKPEDTAVYYCVTDVGAPDYWGQGTLVTVSS
notes: VHH-Fc fusion in assay
B11: TIGIT-SC190 (Fc fusion)
VHH: EVQLVESGGGLVQPGGSLRLSCAASGFTFDRSWMGWFRQAPGKEREWVASVLRGGYTWYADSVKGRFTISADNSKNTAYLQMNSLKPEDTAVYYCVTDVGAPDYWGQGTLVTVSS
notes: VHH-Fc fusion in assay
B12: TIGIT-SC136 (Fc fusion)
VHH: EVQLVESGGGLVQPGGSLRLSCAASGFTLENNMMGWFRQAPGKEREFVAAISRSGTLKAYADSVKGRFTISADNSKNTAYLQMNSLKPEDTAVYYCARGGELTTFYFGYWGQGTLVTVSS
notes: VHH-Fc fusion in assay
B13: TIGIT-SC150 (Fc fusion)
VHH: EVQLVESGGGLVQPGGSLRLSCAASGFTLENNMMGWFRQAPGKEREFVAAISRSGTLKAYADSVKGRFTISADNSKNTAYLQVNSLKPEDTAVYYCVRVRGYSGYDCDYWGQGTLVTVSS
notes: VHH-Fc fusion in assay
B14: TIGIT-SC167 (Fc fusion)
VHH: EVQLVESGGGLVQPGGSLRLSCAASGRTFSFMGWFRQAPGKEREWVASVLRGGYTWYADSVKGRFTISADNSKNTAYLQMNSLKPEDTAVYYCAREGSGYASDYWGQGTLVTVSS
notes: VHH-Fc fusion in assay
B15: TIGIT-SC185 (Fc fusion)
VHH: EVQLVESGGGLVQPGGSLRLSCAASGRTFSFMGWFRQAPGKEREWVASVLRGGYTWYADSVKGRFTISADNSKNTAYLQMNSLKPEDTAVYYCTTDRGYNWNYDWGQGTLVTVSS
notes: VHH-Fc fusion in assay
B16: TIGIT-SC180 (Fc fusion)
VHH: EVQLVESGGGLVQPGGSLRLSCAASGFTLNDYAMGWFRQAPGKERELVAWIARYDGSTLYADSVKGRFTISADNSKNTAYLQMNSLKPEDTAVYYCASEVASGETDYWGQGTLVTVSS
notes: VHH-Fc fusion in assay
B17: TIGIT-SC73 (Fc fusion)
VHH: EVQLVESGGGLVQPGGSLRLSCAASGSSFSLADYAMGWFRQAPGKEREFVAAISYNVGTTYYADSVKGRFTISADNSKNTAYLQMNSLKPEDTAVYYCARWSAKRHSDTMTYYMDVWGQGTLVTVSS
notes: VHH-Fc fusion in assay
B18: TIGIT-SC2 (Fc fusion)
VHH: EVQLVESGGGLVQPGGSLRLSCAASGFTLSSNWMGWFRQAPGKEREMVAAIDWSGGSALYADSVKGRFTISADNSKNTAYLQMNSLKPEDTAVYYCAKDALSNSARFDHWGQGTLVTVSS
notes: VHH-Fc fusion in assay
B19: TIGIT-SC124 (Fc fusion)
VHH: EVQLVESGGGLVQPGGSLRLSCAASGSIFSSNWMGWFRQAPGKEREMVAAIDWSGGSALYADSVKGRFTISADNSKNTAYLQMNSLKPEDTAVYYCAKDALSNSARFDHWGQGTLVTVSS
notes: VHH-Fc fusion in assay
B20: TIGIT-SC125 (Fc fusion)
VHH: EVQLVESGGGLVQPGGSLRLSCAASGFTLSGNWMGWFRQAPGKEREMVAAIDWSGGSALYADSVKGRFTISADNSKNTAYLQMNSLKPEDTAVYYCAKDALSNSARFDHWGQGTLVTVSS
notes: VHH-Fc fusion in assay
B21: TIGIT-SC154 (Fc fusion)
VHH: EVQLVESGGGLVQPGGSLRLSCAASGFAFSSDWMGWFRQAPGKEREWVASVLRGGYTWYADSVKGRFTISADNSKNTAYLQMNSLKPEDTAVYYCAGDYRGFEMAFDPWGQGTLVTVSS
notes: VHH-Fc fusion in assay
B22: TIGIT-SC12 (Fc fusion)
VHH: EVQLVESGGGLVQPGGSLRLSCAASGRTFSAYGMGWFRQAPGKEREFVAAITPSSRTTYYADSVKGRFTISADNSKNTAYLQMNSLKPEDTAVYYCAKDNWGEWLMPWWGQGTLVTVSS
notes: VHH-Fc fusion in assay
B23: TIGIT-SC28 (Fc fusion)
VHH: EVQLVESGGGLVQPGGSLRLSCAASGRTFSTDAMGWFRQAPGKEREFVATINWKDGFTYYADSVKGRFTISADNSKNTAYLQMNSLKPEDTAVYYCAGVGHDYGDYLFDYWGQGTLVTVSS
notes: VHH-Fc fusion in assay
B24: TIGIT-SC147 (Fc fusion)
VHH: EVQLVESGGGLVQPGGSLRLSCAASGTITSAVFMGWFRQAPGKEREFVAAVIWRGGSLKSYADSVKGRFTISADNSKNTAYLQMNSLKPEDTAVYYCAKLAVAGNYYYYGMDVWGQGTLVTVSS
notes: VHH-Fc fusion in assay
B25: TIGIT-SC56 (Fc fusion)
VHH: EVQLVESGGGLVQPGGSLRLSCAASGNTFSGGFMGWFRQAPGKEREWVASVLRGGYTWYADSVKGRFTISADNSKNTAYLQMNSLKPEDTAVYYCAHSKGYNWFDPWGQGTLVTVSS
notes: VHH-Fc fusion in assay
B26: TIGIT-SC80 (Fc fusion)
VHH: EVQLVESGGGLVQPGGSLRLSCAASGNIPPINAMGWFRQAPGKEREFVAAINYSGGSTYYADSVKGRFTISADNSKNTAYLQMNSLKPEDTAVYYCARWHYDILTGYYWLDSWGQGTLVTVSS
notes: VHH-Fc fusion in assay
B27: TIGIT-SC79 (Fc fusion)
VHH: EVQLVESGGGLVQPGGSLRLSCAASGSILSINTMGWFRQAPGKEREFVAAITSAGGTTYYADSVKGRFTISADNSKNTAYLQMNSLKPEDTAVYYCARWHYDILTGYYWLDSWGQGTLVTVSS
notes: VHH-Fc fusion in assay
B28: TIGIT-SC99 (Fc fusion)
VHH: EVQLVESGGGLVQPGGSLRLSCAASGSIFSMNTMGWFRQAPGKEREFVGAINWSGGSTIYADSVKGRFTISADNSKNTAYLQMNSLKPEDTAVYYCARWDYDILTNYYWLEYWGQGTLVTVSS
notes: VHH-Fc fusion in assay
B29: TIGIT-SC87 (Fc fusion)
VHH: EVQLVESGGGLVQPGGSLRLSCAASGSIDTINTMGWFRQAPGKEREFVAAITPSSRTTYYVDSVKGRFTISADNSKNTAYLQMNSLKPEDTAVYYCARWGGVTFGGVYPLEYWGQGTLVTVSS
notes: VHH-Fc fusion in assay

Molecular target: T1, recombinant human TIGIT
Assay: SPR Carterra, average
Protocol: Binding affinities of VHH-Fc proteins to recombinant human TIGIT were measured by SPR using a Carterra instrument (Table 10A). […] Average values reported from measurements from 1-2 samples.

Row | Binder | Kd | koff | kon
1 | B1 | 0.0186 µM | 0.013 s⁻¹ | 871000 M⁻¹ s⁻¹
2 | B2 | 0.0328 µM | 0.0164 s⁻¹ | 501000 M⁻¹ s⁻¹
3 | B3 | 0.0192 µM | 0.0118 s⁻¹ | 631000 M⁻¹ s⁻¹
4 | B4 | 0.0196 µM | 0.00343 s⁻¹ | 207000 M⁻¹ s⁻¹
5 | B5 | 0.0197 µM | 0.00367 s⁻¹ | 196000 M⁻¹ s⁻¹
6 | B6 | 0.0479 µM | 0.00149 s⁻¹ | 31200 M⁻¹ s⁻¹
7 | B7 | 0.0237 µM | 0.00507 s⁻¹ | 214000 M⁻¹ s⁻¹
8 | B8 | 0.0661 µM | 0.00478 s⁻¹ | 67600 M⁻¹ s⁻¹
9 | B9 | 0.0625 µM | 0.00484 s⁻¹ | 93300 M⁻¹ s⁻¹
10 | B10 | 0.883 µM | 0.00528 s⁻¹ | 8880 M⁻¹ s⁻¹
11 | B11 | 0.0243 µM | 0.0015 s⁻¹ | 78400 M⁻¹ s⁻¹
12 | B12 | 0.0204 µM | 0.00254 s⁻¹ | 209000 M⁻¹ s⁻¹
13 | B13 | 0.0998 µM | 0.0212 s⁻¹ | 212000 M⁻¹ s⁻¹
14 | B14 | 0.0213 µM | 0.00349 s⁻¹ | 164000 M⁻¹ s⁻¹
15 | B15 | 0.0803 µM | 0.00621 s⁻¹ | 141000 M⁻¹ s⁻¹
16 | B16 | 0.0217 µM | 0.0101 s⁻¹ | 465000 M⁻¹ s⁻¹
17 | B17 | 0.0218 µM | 0.00276 s⁻¹ | 126000 M⁻¹ s⁻¹
18 | B18 | 0.0221 µM | 0.00274 s⁻¹ | 124000 M⁻¹ s⁻¹
19 | B19 | 0.051 µM | 0.00531 s⁻¹ | 105000 M⁻¹ s⁻¹
20 | B20 | 0.0613 µM | 0.00807 s⁻¹ | 142000 M⁻¹ s⁻¹
21 | B21 | 0.0225 µM | 0.00219 s⁻¹ | 130000 M⁻¹ s⁻¹
22 | B22 | 0.0228 µM | 0.0049 s⁻¹ | 221000 M⁻¹ s⁻¹
23 | B23 | 0.0239 µM | 0.00179 s⁻¹ | 75100 M⁻¹ s⁻¹
24 | B24 | 0.024 µM | 0.0115 s⁻¹ | 383000 M⁻¹ s⁻¹
25 | B25 | 0.0269 µM | 0.000801 s⁻¹ | 29800 M⁻¹ s⁻¹
26 | B26 | 0.0283 µM | 0.00179 s⁻¹ | 63200 M⁻¹ s⁻¹
27 | B27 | 0.056 µM | 0.00445 s⁻¹ | 79500 M⁻¹ s⁻¹
28 | B28 | 0.0524 µM | 0.00428 s⁻¹ | 81600 M⁻¹ s⁻¹
29 | B29 | 0.0287 µM | 0.00564 s⁻¹ | 196000 M⁻¹ s⁻¹
